Source: patent US20190055314A1 (ADAGENE, published 2019)
Positions count from the first letter of the chain named.

B1: Fab 5323 (Fab, V domains shown)
VH: EVQLVESGGGLVQPGGSLRLSCAASGFSLSTSGVGVGWIRQAPGKGLEWIGEIYHSGSTYYSPSLKSRVTISRDNSKNTLYLQLNSLKAEDTAVYYCAREGSDVVTGDWFAYWGQGTLVTVSS
VL: DIQLTQSPSSLSASVGDRVTITCRASQGISSVLAWYQQKPGKAPKLLIYDASSLESGVPSRFSGSGSGTDFTLTISSLQPEDFATYYCQQGYSLWTFGQGTKVEIKR
notes: Fab from E. coli; also called VH19/VL19
B2: Fab 5367 (Fab, V domains shown)
VH: EVQLVESGGGLVQPGGSLRLSCAASGFSLSTSGVGVGWIRQAPGKGLEWVSGISGAGDSTYYADSVKGRFTISRDNSKNTLYLQLNSLRAEDTAVYYCAREGSDTVLGDWFAYWGQGTLVTVSS
VL: B1 VL with G28D, S30R, V32Y, S53N, L54R, E55A, S56T, V58I, L94I
notes: Fab from E. coli; also called VH31/VL31
B3: Fab 5316 (Fab, V domains shown)
VH: EVQLVESGGGLVQPGGSLRLSCAASGYSISSGYHWAWIRQAPGKGLEWVSSISGDGSSTYYADSVKGRFTISRDNSKNTLYLQLNSLRAEDTAVYYCAREGSDAVTGDWFAYWGQGTLVTVSS
VL: B1 VL with I29V, S30G, S31T, V32Y
notes: Fab from E. coli; also called VH17/VL17
B4: Fab 5353 (Fab, V domains shown)
VH: EVQLVESGGGLVQPGGSLRLSCAASGFTFSSYWIHWVRQAPGKGLEWVSVISGDGDTTYYADSVKGRFTISRDNSKNTLYLQLNSLRAEDTAVYYCARSRGLVLDAFDYWGQGTLVTVSS
VL: DIQLTQSPSSLSASVGDRVTITCRASQSVSGRFLAWYQQKPGKAPKLLIYDASSLESGVPSRFSGSGSGTDFTLTISSLQPEDFATYYCQQYDYWPPYTFGQGTKVEIKR
notes: Fab from E. coli; also called VH26/VL26
B5: AG10086 (antibody, human IgG4 S228P, kappa, V domains shown)
VH: B3 VH with Y33H, S51V, D55S, A104T, T106L
VL: B1 VL with V32Y, S53N, S56T, L94T
notes: also called IgG of Fab 5409
B6: AG10084 (antibody, human IgG4 S228P, kappa, V domains shown)
VH: B3 VH with S30T, Y33H, H34Y, A36N, S51G, E100G, T106L
VL: B1 VL with G28S, V32Y, S53N, S56T, L94T
B7: AG10126 (antibody, human IgG4 S228P, kappa, V domains shown)
VH: B3 VH
VL: B1 VL with I29V, S30G, S31T, V32Y
notes: also called IgG of Fab 5316
B8: AG10132 (antibody, human IgG4 S228P, kappa, V domains shown)
VH: B3 VH with S30T, A36S, D55Y, S57D, S58T, A104T, T106L
VL: B1 VL with R24Q, G28D, S30R, S31T, V32Y, S53N, S56T, L94I
notes: also called IgG of Fab 5408
B9: AG10054 (antibody, human IgG4 S228P, kappa, V domains shown)
VH: EVQLVESGGGLVQPGGSLRLSCAASGFSLSTSGVAVSWIRQAPGKGLEWIGIINPNFGDTNYAQKFQGRVTISRDNSKNTLYLQLNSLRAEDTAVYYCARDEYYGGSYYFDYWGQGTLVTVSS
VL: DIQLTQSPSSLSASVGDRVTITCRASQDVRTAVAWYQQKPGKAPKLLIYDASNLETGVPSRFSGSGSGTDFTLTISSLQPEDFATYYCQQSYDWPPTFGQGTKVEIKR
notes: also called IgG of Fab 4072
B10: AG10060 (antibody, human IgG4 S228P, kappa, V domains shown)
VH: EVQLVESGGGLVQPGGSLRLSCAASGFSLSTSGVGVGWIRQAPGKGLEWLALIDWADDKYYSPSLKSRLTISRDNSKNTLYLQLNSLRAEDTAVYYCARGGSDAVLGDWFAYWGQGTLVTVSS
VL: B1 VL with S30G, V32Y, S53N, S56T, L94I
notes: also called IgG of Fab 5359
B11: AG10057 (antibody, human IgG4 S228P, kappa, V domains shown)
VH: B10 VH with G35A, G100E
VL: B1 VL with G28D, S31T, V32F, G91A, L94I
notes: also called IgG of Fab 5303
B12: AG10063 (antibody, human IgG4 S228P, kappa, V domains shown)
VH: B10 VH with S32G, G35A, A56D, D57G, Y60S, P63T, G100E, D103T, L106V, A111D
VL: B1 VL with S31R, V32Y, S53N, L54R, E55A, S56T, V58I
notes: also called IgG of Fab 5413
B13: AG10061 (antibody, human IgG4 S228P, kappa, V domains shown)
VH: B10 VH with G35A, G37A, A56D, Y60R, P63T, G100E, D103T, A104T, L106V, A111D
VL: B1 VL with S30G, S31T, V32Y, S53N, L54R, E55A, S56T, V58I
B14: AG10125 (antibody, human IgG4 S228P, kappa, V domains shown)
VH: B10 VH with S32G, G35A, D57G, Y60S, P63T, A104T
VL: B1 VL with I29V, S31P, V32Y, S53N, L54R, E55A, S56T, V58I, L94T
notes: also called IgG of Fab 5314
B15: AG10127 (antibody, human IgG4 S228P, kappa, V domains shown)
VH: B10 VH with G35A, A56D, P63T, G100E, D103T, L106A
VL: DIQLTQSPSSLSASVGDRVTITCQASQDIRTFLAWYQQKPGKAPKLLIYDASNRATGIPSRFSGSGSGTDFTLTISSLQPEDFATYYCQQGYSTWTFGQGTKVEIKR
notes: also called IgG of Fab 5318
B16: AG10128 (antibody, human IgG4 S228P, kappa, V domains shown)
VH: B10 VH with S32G, G35A, D57G, Y60S, P63T, G100E, S102E, L106T
VL: B15 VL with F32Y, T94I
notes: also called IgG of Fab 5342
B17: AG10062 (antibody, human IgG4 S228P, kappa, V domains shown)
VH: EVQLVESGGGLVQPGGSLRLSCAASGYSISSGYHWAWIRQAPGKGLEWIGEIYHSGSTYYSPSLKSRVTISRDNSKNTLYLQLNSLRAEDTAVYYCARSPYYYGVFDYWGQGTLVTVSS
VL: DIQLTQSPSSLSASVGDRVTITCSASSRVGSVYWYQQKPGKAPKLLIYDASNLETGVPSRFSGSGSGTDFTLTISSLQPEDFATYYCQQYTHDPVTFGQGTKVEIKR
notes: also called IgG of Fab 5404
B18: AG10079 (antibody, human IgG4 S228P, kappa, V domains shown)
VH: EVQLVESGGGLVQPGGSLRLSCAASGFSLSTGGVGVSWIRQAPGKGLEWVSSISGSGGTTYYADSVKGRFTISRDNSKNTLYLQLNSLRAEDTAVYYCARDDLYSWYFDVWGQGTLVTVSS
VL: B1 VL with S30G, V32S, D50A, E55Q, S93Y, L94T
notes: also called IgG of Fab 4074
B19: AG10080 (antibody, human IgG4 S228P, kappa, V domains shown)
VH: EVQLVESGGGLVQPGGSLRLSCAASGYSISSGYYWDWIRQAPGKGLEWVSSISGDGDTTYYADSVKGRFTISRDNSKNTLYLQLNSLRAEDTAVYYCAREYYGYGYALDYWGQGTLVTVSS
VL: DIQLTQSPSSLSASVGDRVTITCRASQGISSYLAWYQQKPGKAPKLLIYDASSLESGVPSRFSGSGSGTDFTLTISSLQPEDFATYYCQQYYSTPLTFGQGTKVEIKR
notes: also called IgG of Fab 4217

Molecular target: T1, CD137-hisFc fusion protein (Sino Biological Cat 10041-H03H) (human, UniProt Q07011 24-186)
T1 construct: Bought; also called recombinant human CD137 (fused with human Fc and His tag); not shown: His tag and human Fc
Experiment: BLI Octet, Fab

B1 and B2 are within 1.5-fold of each other in Kd: 10.4 nM for the first, 14.9 nM for the second.

B3 and B4 are within 1.5-fold of each other in Kd: 11.4 nM for the first, 16.1 nM for the second.

B1 and B2 are within 1.5-fold of each other in koff: 0.00812 s⁻¹ for the first, 0.00608 s⁻¹ for the second.

Going from B3 to B4, the koff rises from 0.00161 s⁻¹ to 0.00597 s⁻¹ (3.7-fold).

Compared with B1, B2 is 1.9-fold lower in kon: 782000 M⁻¹ s⁻¹ for the first, 407000 M⁻¹ s⁻¹ for the second.

First: B3
Second: B4
The kon of the first is 2.6-fold lower: 141000 M⁻¹ s⁻¹ for the first, 370000 M⁻¹ s⁻¹ for the second.

Molecular target: T2, human CD137-His6 (Sino Biological #10041-H08H) (human, UniProt Q07011 24-186)
T2 construct: Bought; also called human CD137 protein; not shown: His6 tag
Experiment: SPR Biacore, IgG

B5 and B6 are within 1.5-fold of each other in Kd: 46 nM for the first, 43 nM for the second.

First: B7
Second: B8
The Kd of the first is 4.9-fold lower: 14 nM for the first, 69 nM for the second. The first binds more tightly here.

Compared with B9, B10 is 12-fold lower in Kd: 13 nM for the first, 1.1 nM for the second. The second binds more tightly here.

First: B11
Second: B12
The Kd of the first is 8-fold higher: 7.9 nM for the first, 0.99 nM for the second. The second binds more tightly here.

Compared with B13, B14 is 4.2-fold higher in Kd: 3.6 nM for the first, 15 nM for the second. The first binds more tightly here.

First: B15
Second: B16
The Kd of the first is 3.2-fold higher: 9.6 nM for the first, 3 nM for the second.

First: B17
Second: B18
The Kd of the first is 4.2-fold higher: 5.9 nM for the first, 1.4 nM for the second. The second binds more tightly here.

For B19, the Kd was 10 nM.

Going from B5 to B6, the koff falls from 0.0045 s⁻¹ to 0.0028 s⁻¹ (1.6-fold).

Compared with B8, B9 is 7.4-fold lower in koff: 0.014 s⁻¹ for the first, 0.0019 s⁻¹ for the second.

Compared with B10, B11 is 24-fold higher in koff: 0.00025 s⁻¹ for the first, 0.0061 s⁻¹ for the second.

Compared with B12, B13 is 2-fold higher in koff: 0.00039 s⁻¹ for the first, 0.00078 s⁻¹ for the second.

Compared with B14, B15 is 1.7-fold higher in koff: 0.0017 s⁻¹ for the first, 0.0029 s⁻¹ for the second.

Compared with B16, B17 is 2.5-fold higher in koff: 0.00037 s⁻¹ for the first, 0.00094 s⁻¹ for the second.

First: B18
Second: B19
The koff of the first is 44-fold lower: 0.00027 s⁻¹ for the first, 0.012 s⁻¹ for the second.

Compared with B5, B6 is 1.5-fold lower in kon: 100000 M⁻¹ s⁻¹ for the first, 66000 M⁻¹ s⁻¹ for the second.

B8 and B9 are within 1.5-fold of each other in kon: 200000 M⁻¹ s⁻¹ for the first, 140000 M⁻¹ s⁻¹ for the second.

First: B10
Second: B11
The kon of the first is 3.5-fold lower: 220000 M⁻¹ s⁻¹ for the first, 770000 M⁻¹ s⁻¹ for the second.

Going from B12 to B13, the kon falls from 390000 M⁻¹ s⁻¹ to 220000 M⁻¹ s⁻¹ (1.8-fold).

Compared with B14, B15 is 2.7-fold higher in kon: 110000 M⁻¹ s⁻¹ for the first, 300000 M⁻¹ s⁻¹ for the second.

B16 and B17 are within 1.5-fold of each other in kon: 120000 M⁻¹ s⁻¹ for the first, 160000 M⁻¹ s⁻¹ for the second.

Going from B18 to B19, the kon rises from 190000 M⁻¹ s⁻¹ to 1.2e+06 M⁻¹ s⁻¹ (6.3-fold).

Molecular target: T1, CD137-hisFc fusion protein (Sino …)
Experiment: BLI Octet, Fab
Remark: another data set of the same source

Compared with B1, B2 is 1.5-fold higher in Kd: 10 nM for the first, 15 nM for the second. The first binds more tightly here.

B3 and B4 are within 1.5-fold of each other in Kd: 11 nM for the first, 16 nM for the second.

B1 and B2 are within 1.5-fold of each other in koff: 0.0081 s⁻¹ for the first, 0.0061 s⁻¹ for the second.

First: B3
Second: B4
The koff of the first is 3.8-fold lower: 0.0016 s⁻¹ for the first, 0.006 s⁻¹ for the second.

Going from B1 to B2, the kon falls from 780000 M⁻¹ s⁻¹ to 410000 M⁻¹ s⁻¹ (1.9-fold).

Compared with B3, B4 is 2.6-fold higher in kon: 140000 M⁻¹ s⁻¹ for the first, 370000 M⁻¹ s⁻¹ for the second.
